The assay has as its target T1, ph01207 gene product (Homo sapiens, UniProt O60241, DEL308-362).
T1 construct: oocytes expressing the gene (ph01207 cDNA clones); expressed in transfected cells; host or cells: Xenopus laevis oocytes
T1 sequence (O60241 with tags, fused parts or gaps DEL308-362): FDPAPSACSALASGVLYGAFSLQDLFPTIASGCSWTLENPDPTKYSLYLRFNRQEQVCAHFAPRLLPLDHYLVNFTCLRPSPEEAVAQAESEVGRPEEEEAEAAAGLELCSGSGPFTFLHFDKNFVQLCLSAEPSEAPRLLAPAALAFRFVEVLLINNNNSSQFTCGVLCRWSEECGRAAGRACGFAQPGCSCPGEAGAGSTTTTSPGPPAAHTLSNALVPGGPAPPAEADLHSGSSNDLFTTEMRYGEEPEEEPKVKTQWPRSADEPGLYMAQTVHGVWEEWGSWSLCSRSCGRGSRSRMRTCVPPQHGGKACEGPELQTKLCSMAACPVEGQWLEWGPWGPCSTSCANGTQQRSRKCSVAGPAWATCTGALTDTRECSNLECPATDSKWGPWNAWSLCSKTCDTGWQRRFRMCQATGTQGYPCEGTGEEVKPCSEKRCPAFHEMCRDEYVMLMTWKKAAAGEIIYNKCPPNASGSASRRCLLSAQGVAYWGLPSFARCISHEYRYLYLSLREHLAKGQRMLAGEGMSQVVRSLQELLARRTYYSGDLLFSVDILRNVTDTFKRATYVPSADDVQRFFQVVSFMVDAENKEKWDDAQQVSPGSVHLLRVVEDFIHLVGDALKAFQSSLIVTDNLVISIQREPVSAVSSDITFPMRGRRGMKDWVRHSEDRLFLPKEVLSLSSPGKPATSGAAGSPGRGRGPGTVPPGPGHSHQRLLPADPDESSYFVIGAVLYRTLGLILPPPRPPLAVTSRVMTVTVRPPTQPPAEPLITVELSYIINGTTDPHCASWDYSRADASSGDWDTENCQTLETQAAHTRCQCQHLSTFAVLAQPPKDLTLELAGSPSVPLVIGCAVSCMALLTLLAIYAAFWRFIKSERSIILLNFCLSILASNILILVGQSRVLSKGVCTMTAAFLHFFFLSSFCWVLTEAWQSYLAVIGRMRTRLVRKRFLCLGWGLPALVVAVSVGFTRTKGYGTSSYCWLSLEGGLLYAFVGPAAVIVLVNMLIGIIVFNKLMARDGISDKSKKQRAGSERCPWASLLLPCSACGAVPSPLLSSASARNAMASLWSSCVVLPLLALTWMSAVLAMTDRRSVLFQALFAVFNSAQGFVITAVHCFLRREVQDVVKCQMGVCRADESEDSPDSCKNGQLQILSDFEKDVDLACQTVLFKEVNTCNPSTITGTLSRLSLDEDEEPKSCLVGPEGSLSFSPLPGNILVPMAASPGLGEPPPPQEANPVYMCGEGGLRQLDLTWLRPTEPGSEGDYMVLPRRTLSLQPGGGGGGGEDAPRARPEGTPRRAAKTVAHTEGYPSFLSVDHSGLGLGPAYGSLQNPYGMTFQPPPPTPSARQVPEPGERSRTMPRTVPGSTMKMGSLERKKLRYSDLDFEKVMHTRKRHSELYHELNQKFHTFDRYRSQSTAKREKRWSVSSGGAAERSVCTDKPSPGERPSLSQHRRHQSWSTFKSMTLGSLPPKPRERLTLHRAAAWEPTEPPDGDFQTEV
The assay is described as follows: Intracellular calcium concentration change assay with ph01207#3F8-17 strain: inhibition of the response to CCK-8S. The format is cell-based. To be noted: 10 nM CCK-8S, wells with buffer. The source says: A compound that inhibits a response of the ph01207 gene product to a ligand was identified by an intracellular calcium concentration change assay system using the ph01207-expressing cell strain.
The ph01207-expressing cell strain was constructed as follows. First, a ph01207-expressing vector not containing an epitope tag was constructed by recombination between a ph01207 cDNA clone identified in Example 1 and pcDNA3.1 (Invitrogen) with Asp718I (Boehringer) and NotI (TAKARA). The ph01207-expressing vector was transfected into the CHO-K1 strain, a host cell, using Lipofectamine 2000 (Invitrogen), and the cells were screened for stably-expressing strains by a selective medium containing G418. Expression of the gene introduced into the cell was detected by the FCM analysis using an anti-ph01207 antibody.
As a result, a plurality of cell strains stably expressing ph01207 were obtained. A compound was identified using the ph01207#3F8-17 strain, a clone of these strains.
As a ligand, CCK-8S (Peptide Institute, Inc.) was used. […]
Compounds were specifically identified as follows. […] After reaction, CCK-8S (Peptide Institute, Inc.) and a compound was added, and changes over time in the fluorescence intensity in each well were measured for 80 sec. […] Changes over time in the fluorescence intensity were measured using the FLEX station (Molecular Device).
(Calcium flux is commonly read through the fluorescence of an indicator in the cells.)

For “cholecystokinin octapeptide sulfated form [CCK-8S]”, the “Change in fluorescence intensity (intracellular Ca2+) after addition of CCK-8S” value is on record as “increased”.

Values taken from patent US20100029702A1, “Method For Identification of Compound Having Anti-Anxiety Effect” (priority 2006, published 2010).
